Reference: patent US20210324359A1, “USE OF GRAM-NEGATIVE LYSIN-ANTIMICROBIAL PEPTIDE (AMP) POLYPEPTIDE CONSTRUCTS IN TREATING ENDOCARDITIS” (priority 2020, published 2021)
Like-named read-outs stand apart in the source and are kept apart here.

How the values were obtained:
Staphylococcus aureus = assay: Daptomycin MIC with […], positive control (Table 10); type: cell-based; settings: for fold increase in MIC with SURVANTA: Staphylococcus aureus
Experimental: As a positive control, the impact of […] ® on daptomycin (DAP) activity against Staphylococcus aureus was also tested.

[1] = system: Pseudomonas aeruginosa strain CFS-1292 (meropenem resistant); settings: for Fold Increase (MIC) in presence of cations: CFS-1292; for MIC in 25% CAA: strain CFS-1292, no added cations
Experimental: The activity of selected GN lysins and constructs in the presence of divalent cations was evaluated, and the impact of divalent cations at physiological concentrations was examined in the MIC assay format.

[2] = system: P. aeruginosa isolate CFS-1292; assay: MIC in CAA supplemented with a range of […] concentrations (Table 10); type: cell-based, Pseudomonas aeruginosa
[3] = system: P. aeruginosa strain WC-453; assay: Time-kill assay in HEPES or CAA with 25% human serum (Tables 7, 8); type: cell-based, Pseudomonas aeruginosa; settings: for bactericidal activity (CFU decrease of 3-Log10, 3 hours after the addition of lysin): 10 μg/mL, enumerated lysins in CAA/HuS, general statement for HEPES and CAA/HuS; for CAA/HuS (Log10 CFU/mL), 1 hr / CAA/HuS (Log10 CFU/mL), 3 hr: CAA + 25% human serum, lysin 10 μg/ml, WC-453
Experimental: Exponential phase bacteria were then pelleted and resuspended in 1/5 culture volume of 25 mM HEPES, pH 7.4 before a final adjustment to an optical density corresponding to a McFarland value of 0.5. […] All treatments were incubated at 37° C. with aeration. At time points before the addition of lysin (or buffer control) and at 1 hour and 3 hours intervals thereafter, culture samples were removed for quantitative plating on CAA agar plates.

[4] = system: carbepenam-resistant clinical isolate WC-453; assay: MIC in CAA without or with 25% human serum (Table 5); type: cell-based, Pseudomonas aeruginosa
Experimental: MIC values were determined using a modification of the standard broth microdilution reference method defined by the Clinical and Laboratory Standards Institute (CLSI), CLSI. […] Methods for Dilution Antimicrobial Susceptibility Tests for Bacteria That Grow Aerobically; Approved Standard-10th Edition. Clinical and Laboratory Standards Institute, Wayne, Pa.

[5] = system: biofilms formed by P. aeruginosa strain ATCC 17646; settings: strain ATCC 17646 biofilm
Experimental: Biofilms are then washed and treated with e.g., a 2-fold dilution series of the lysin in TSBg at e.g., 37° C. for 24 hours. After treatment, wells are washed, air-dried at e.g., 37° C. and stained with e.g., 0.05% crystal violet for 10 minutes.

P. aeruginosa = assay: MIC, modified CLSI broth microdilution in CAA medium without or with […] human serum (Table 4); type: cell-based, Pseudomonas aeruginosa; settings: for CAA MIC: CAA medium, no human serum; for CAA/HuS MIC: CAA supplemented with […] human serum; as to CAA/HuS MIC: CAA supplemented with 2.5% human serum
Source text: 2015. […] Clinical and Laboratory Standards Institute, Wayne, Pa.

[6] = system: carbapenem-resistant P. aeruginosa strains; assay: Resensitization of carbapenem-resistant strains, combinations with imipenem or meropenem (Tables 18-22); type: cell-based, Pseudomonas aeruginosa
Experimental: Such resensitization may be determined by combining the present lysins or lysin-AMP polypeptide constructs with an antibiotic in a checkerboard assay as described herein. Antibiotic-resistant bacteria, such as carbapenem-resistant P. aeruginosa, are added to the lysin or lysin-AMP polypeptide construct combination. […] See Clinical and Laboratory Standards Institute (CLSI), CLSI. […] M100 Performance Standards for Antimicrobial Susceptibility Testing; 29th Edition. Clinical and Laboratory Standards Institute, Wayne, Pa., which is herein incorporated by reference in its entirety.
Up to seven carbapenem-resistant isolates were assessed. […] See Clinical and Laboratory Standards Institute (CLSI), CLSI. […] M100 Performance Standards for Antimicrobial Susceptibility Testing; 29th Edition. Clinical and Laboratory Standards Institute, Wayne, Pa.

[7] = 25% CAA + […] CaCl2 and […] MgCl2

daptomycin
fold increase in MIC with SURVANTA (Staphylococcus aureus; 0.09% SURVANTA): 32 fold | fold increase in MIC with SURVANTA (Staphylococcus aureus; 0.19% SURVANTA): 32 fold | fold increase in MIC with SURVANTA (Staphylococcus aureus; 1.56% SURVANTA): 128 fold | fold increase in MIC with SURVANTA (Staphylococcus aureus; 3.15% SURVANTA): 128 fold | inhibition by pulmonary surfactant (Staphylococcus aureus; SURVANTA 0.09-[…], S. aureus): inhibitory to the activity of DAP

B1: GN156: GPRRPRRPGRRAPV introduced at the N terminus of GN4 (SEQ ID NO: 126) (protein)
chain: GPRRPRRPGRRAPVRTSQRGIDLIKSFEGLRLSAYQDSVGVWTIGYGTTRGVTRYMTITVEQAERMLSNDIQRFEPELDRLAKVPLNQNQWDALMSFVYNLGAANLASSTLLKLLNKGDYQGAADQFPRWVNAGGKRLDGLVKRRAAERALFLEPLS
Fold Increase (MIC) in presence of cations ([1]; 25% CAA + […] CaCl2 (high)): 1 fold | Fold Increase (MIC) in presence of cations ([1]; 25% CAA + […] CaCl2 (low)): 2 fold | Fold Increase (MIC) in presence of cations ([1]; 25% CAA + […] CaCl2 (medium)): 2 fold | Fold Increase (MIC) in presence of cations [1, 7]: 2 fold | Fold Increase (MIC) in presence of cations ([1]; 25% CAA + […] MgCl2 (high)): 2 fold | Fold Increase (MIC) in presence of cations ([1]; 25% CAA + […] MgCl2 (low)): 2 fold | Fold Increase (MIC) in presence of cations ([1]; 25% CAA + […] MgCl2 (medium)): 2 fold | MIC in 25% CAA [1]: 2 µg/mL | fold increase in MIC with SURVANTA ([2]; 0.09% SURVANTA): 1 fold | fold increase in MIC with SURVANTA ([2]; 0.19% SURVANTA): 1 fold | fold increase in MIC with SURVANTA ([2]; 1.56% SURVANTA): 2 fold | fold increase in MIC with SURVANTA ([2]; 3.15% SURVANTA): 2 fold

B2: GN316: lysin obtained from Klebsiella phage 0507-KN2-1 (SEQ ID NO: 22) (protein)
chain: MAILKIGSKGLEVKNLQTSLNKIGFNLVADGIFGKATDNAVRAVQAGAGLVVDGIAGPKTMYAIRNAGESHQDHLTEADLIDAARELSVDLASIKAVNQVESRGTGFTKSGKIKTLFERHIMYKKLNAKFGQAKANALAQLYPTLVNAKAGGYTGGDAELERLHGAIAIDKDCAYESASYGLFQIMGFNCVICGYDNAEEMFNDFLTGERAQLMAFVKFIKADANLWKALKDKNWAEFARRYNGPAYAQNQYDTKLAAAYKSFS
modifications: (1)..(264) GN316 lysin
bactericidal activity (CFU decrease of 3-Log10, 3 hours after the addition of lysin) [3]: bactericidal activity | CAA/HuS (Log10 CFU/mL), 1 hr [3]: 5.1 Log10 CFU/mL | CAA/HuS (Log10 CFU/mL), 3 hr [3]: <3.7 Log10 CFU/mL | activity in CAA supplemented with human serum (25%) [4]: active | CAA MIC ([4]; CAA): 16 | CAA/HuS MIC ([4]; CAA supplemented with 25% human serum): <0.0625 | MIC in 25% CAA [1]: 4 µg/mL | MBEC [5]: 1 µg/mL | CAA MIC (P. aeruginosa): 16000 µg/mL | CAA/HuS MIC (P. aeruginosa): 125 µg/mL

B3: GN123: lysin obtained from Pseudomonas phage PhiPA3 (SEQ ID NO: 173) (protein)
chain: MTLLKKGDKGDAVKQLQQKLKDLGYTLGVDGNFGNGTDTVVRSFQTKMKLSVDGVVGNGTMSTIDSTLAGIKAWKTSVPFPATNKSRAMAMPTLTEIGRLTNVDPKLLATFCSIESAFDYTAKPYKPDGTVYSSAEGWFQFLDATWDDEVRKHGKQYSFPVDPGRSLRKDPRANGLMGAEFLKGNAAILRPVLGHEPSDTDLYLAHFMGAGGAKQFLMADQNKLAAELFPGPAKANPNIFYKSGNIARTLAEVYAVLDAKVAKHRA
modifications: Pseudomonas phage PhiPA3
resensitization to carbapenems in synergistic combinations ([6]; imipenem (IPM) and meropenem (MEM), carbapenem-resistant isolates): reductions of IPM and MEM MICS to below breakpoint values | lysin MIC, Combination ([6]; in combination with imipenem, isolate PA19): 0.125 µg/mL | lysin MIC, Combination ([6]; in combination with imipenem, isolate PA20): 2 µg/mL | lysin MIC, Combination ([6]; in combination with imipenem, isolate PA21): 1 µg/mL | lysin MIC, Combination ([6]; in combination with imipenem, isolate PA22): 1 µg/mL | lysin MIC, Combination ([6]; in combination with imipenem, isolate PA23): 2 µg/mL | lysin MIC, Combination ([6]; in combination with imipenem, isolate PA24): 2 µg/mL | lysin MIC, Combination ([6]; in combination with imipenem, isolate WC-452): 2 µg/mL | lysin MIC, Combination ([6]; in combination with meropenem, isolate PA19): 0.25 µg/mL | lysin MIC, Combination ([6]; in combination with meropenem, isolate PA20): 1 µg/mL | lysin MIC, Combination ([6]; in combination with meropenem, isolate PA21): 1 µg/mL | lysin MIC, Combination ([6]; in combination with meropenem, isolate PA22): 1 µg/mL | lysin MIC, Combination ([6]; in combination with meropenem, isolate PA23): 1 µg/mL | lysin MIC, Combination ([6]; in combination with meropenem, isolate PA24): 0.5 µg/mL | lysin MIC, Combination ([6]; in combination with meropenem, isolate WC-452): 1 µg/mL | MIC, Alone ([6]; isolate PA19): 8 µg/mL | MIC, Alone ([6]; isolate PA20): 16 µg/mL | MIC, Alone ([6]; isolate PA21): 8 µg/mL | MIC, Alone ([6]; isolate PA22): 16 µg/mL | MIC, Alone ([6]; isolate PA23): 8 µg/mL | MIC, Alone ([6]; isolate PA24): 16 µg/mL | MIC, Alone ([6]; isolate WC-452): 16 µg/mL | FICI ([6]; lysin + imipenem, isolate PA19): 0.03 | FICI ([6]; lysin + imipenem, isolate PA20): 0.188 | FICI ([6]; lysin + imipenem, isolate PA21): 0.141 | FICI ([6]; lysin + imipenem, isolate PA22): 0.188 | FICI ([6]; lysin + imipenem, isolate PA23): 0.281 | FICI ([6]; lysin + imipenem, isolate PA24): 0.188 | FICI ([6]; lysin + imipenem, isolate WC-452): 0.188 | FICI ([6]; lysin + meropenem, isolate PA19): 0.046 | FICI ([6]; lysin + meropenem, isolate PA20): 0.094 | FICI ([6]; lysin + meropenem, isolate PA21): 0.156 | FICI ([6]; lysin + meropenem, isolate PA22): 0.125 | FICI ([6]; lysin + meropenem, isolate PA23): 0.156 | FICI ([6]; lysin + meropenem, isolate PA24): 0.094 | FICI ([6]; lysin + meropenem, isolate WC-452): 0.125 | Fold Increase (MIC) in presence of cations ([1]; 25% CAA + […] CaCl2 (high)): 1 fold | Fold Increase (MIC) in presence of cations ([1]; 25% CAA + […] CaCl2 (low)): 1 fold | Fold Increase (MIC) in presence of cations ([1]; 25% CAA + […] CaCl2 (medium)): 1 fold | Fold Increase (MIC) in presence of cations [1, 7]: 1 fold | Fold Increase (MIC) in presence of cations ([1]; 25% CAA + […] MgCl2 (high)): 1 fold | Fold Increase (MIC) in presence of cations ([1]; 25% CAA + […] MgCl2 (low)): 1 fold | Fold Increase (MIC) in presence of cations ([1]; 25% CAA + […] MgCl2 (medium)): 1 fold | MIC in 25% CAA [1]: 2 µg/mL | fold increase in MIC with SURVANTA ([2]; 0.09% SURVANTA): 1 fold | fold increase in MIC with SURVANTA ([2]; 0.19% SURVANTA): 1 fold | fold increase in MIC with SURVANTA ([2]; 1.56% SURVANTA): 1 fold | fold increase in MIC with SURVANTA ([2]; 3.15% SURVANTA): 2 fold

B4: GN333: lysin obtained from Delftia sp. (SEQ ID NO: 28) (protein, listed as Delftia sp.)
chain: MALTEQDFQSAADDLGVDVASVKAVTKVESRGSGFLLSGVPKILFERHWMFKLLKRKLGRDPEINDVCNPKAGGYLGGQAEHERLDKAVKMDRDCALQSASWGLFQIMGFHWEALGYASVQAFVNAQYASEGSQLNTFVRFIKTNPAIHKALKSKDWAEFARRYNGPDYKKNNYDVKLAEAYQSFK
bactericidal activity (CFU decrease of 3-Log10, 3 hours after the addition of lysin) [3]: bactericidal activity | CAA/HuS (Log10 CFU/mL), 1 hr [3]: 4.9 Log10 CFU/mL | CAA/HuS (Log10 CFU/mL), 3 hr [3]: <3.7 Log10 CFU/mL | MIC in 25% CAA [1]: 8 µg/mL | MBEC [5]: 1 µg/mL | CAA MIC (P. aeruginosa): 8000 µg/mL | CAA/HuS MIC (P. aeruginosa): 60 µg/mL

B5: GN329: lysin, SEQ ID NO: 26 (protein)
chain: MITDREYQQAAEMLGVDVPAIKAVTKVEAPVGGFQPTGEPTILYERHQMYRQLQAKGLPTEGHPPDLVNKVAGGYGKYSEQHAKLARAVKIDRDSALESCSWGMFQIMGYHWKLMGYPTLQAFVNAMYASEGAQMDAFCRFIKAQPTTHAALKAHDWAKFARLYNGPGYAKNKYDVKLEKAYAEASG
modifications: Pseudomonas phage KPP10
bactericidal activity (CFU decrease of 3-Log10, 3 hours after the addition of lysin) [3]: bactericidal activity | CAA/HuS (Log10 CFU/mL), 1 hr [3]: 4.4 Log10 CFU/mL | CAA/HuS (Log10 CFU/mL), 3 hr [3]: <3.7 Log10 CFU/mL | MIC in 25% CAA [1]: 4 µg/mL | MBEC [5]: 0.5 µg/mL | CAA MIC (P. aeruginosa): 4000 µg/mL | CAA/HuS MIC (P. aeruginosa): 250 µg/mL
